# In patent US20100239597A1 (NORTHWESTERN UNIVERSITY, published 2010):
# B1: Hu20C2A3 (veneered version of clone A3, IgG2m4 isotype) (antibody, V domains shown)
# VH: QVTLKESGPGLLKPTQTLTLTCTLSGFSLSTSGMGVGWFRQPPGKGLEWLAHIWWDDDKSYNPSLKSRLTISKDTSKNQVVLTITNVDPVDTATYYCARRQLGTRGTDAMDYWGQGTTVTVSS
# VL: DVVMTQTPLSLPVTPGQPASISCRSSQSILHSNGNTYLEWYLQKPGQSPQLLIYKVSNRFSGVPDRFSGSGSGTDFTLKISRVEAEDVGVYYCLQTTRVPLTFGQGTKLEIKR
# notes: To be checked against the listing; also called Hu20C2A3 IgG2m4
# What was measured:
# [1] = biological target: T1, Aβ-derived diffusible ligands (ADDLs) (UniProt P05067 672-713); experiment: titration ELISA on captured ADDL, A450 nm; Hu20C2A3 produced in Pichia
# T1 construct: domain: Aβ1-42
# Protocol: (§1) Affinity maturation was carried out to improve affinity and improve preferential binding to ADDL. To evaluate ADDL binding affinity of the humanized antibodies, BIACORE™ and titration ELISAs were conducted as disclosed herein. Briefly, Streptavidin-coated, 96-well microtiter plates (Sigma, St. Louis, Mo.) were coated with 10% biotinylated ADDL antigen (1 μM). A series of 2-fold dilutions of purified antibody, starting at 500 ng/mL was added to the ADDL captured plates and the plates were incubated for 2 hours at 25° C. After washing five times with PBS solution using a plate washer (Bio-Tek, Winooski, Va.), polyclonal goat anti-human kappa light chain antibody (Biomeda, Foster City, Calif.) was added at a 1/2000 dilution in 3% non-fat milk blocker and incubated at room temperature for 1 hour. A rabbit anti-goat IgG (H+L) HRP-conjugated (Bethyl Laboratories, Inc., Montgomery, Tex.) detection antibody was then added at a 1/2000 dilution in blocking solution and incubated for 1 hour at room temperature. After washing with PBS, HRP substrate, 3,3′,5′5-tetramethylbenzidine (ready-to-use TMB; Sigma, St. Louis, Mo.) was added and the reaction was stopped after 10 minutes with 0.5 N H₂SO₄. Absorbance at wavelength of 450 nm was read in a plate reader (model VICTOR V; Perkin Elmer, Boston, Mass.) and data were processed using EXCEL® work sheet.
# [2] = biological target: T2, Aβ40 monomer (UniProt P05067 672-711); experiment: titration ELISA on Aβ40 monomer, A450 nm; Hu20C2A3 produced in Pichia
# T2 construct: domain: Aβ(1-40); also called Aβ monomer; amyloid beta (1-40) peptide
# [3] = biological target: T1, Aβ-derived diffusible ligands (ADDLs); experiment: titration ELISA on captured ADDL, A450 nm; Hu20C2A3 produced in CHO
# Protocol: as §1
# [4] = biological target: T2, Aβ40 monomer; experiment: titration ELISA on Aβ40 monomer, A450 nm; Hu20C2A3 produced in CHO
binder,measurement,setting,value
B1,EC50 (read off the curve),[1],~0.009 µg/mL
same,EC50 (read off the curve),[2],~0.04 µg/mL
same,EC50 (read off the curve),[3],~0.008 µg/mL
same,EC50 (read off the curve),[4],~0.04 µg/mL
